{"source": "patent US20030044899A1", "biological_target": "integrin α3β1 (human) (UniProt P26006)", "sequence (P26006 33-1051, chain 1 of 2)": "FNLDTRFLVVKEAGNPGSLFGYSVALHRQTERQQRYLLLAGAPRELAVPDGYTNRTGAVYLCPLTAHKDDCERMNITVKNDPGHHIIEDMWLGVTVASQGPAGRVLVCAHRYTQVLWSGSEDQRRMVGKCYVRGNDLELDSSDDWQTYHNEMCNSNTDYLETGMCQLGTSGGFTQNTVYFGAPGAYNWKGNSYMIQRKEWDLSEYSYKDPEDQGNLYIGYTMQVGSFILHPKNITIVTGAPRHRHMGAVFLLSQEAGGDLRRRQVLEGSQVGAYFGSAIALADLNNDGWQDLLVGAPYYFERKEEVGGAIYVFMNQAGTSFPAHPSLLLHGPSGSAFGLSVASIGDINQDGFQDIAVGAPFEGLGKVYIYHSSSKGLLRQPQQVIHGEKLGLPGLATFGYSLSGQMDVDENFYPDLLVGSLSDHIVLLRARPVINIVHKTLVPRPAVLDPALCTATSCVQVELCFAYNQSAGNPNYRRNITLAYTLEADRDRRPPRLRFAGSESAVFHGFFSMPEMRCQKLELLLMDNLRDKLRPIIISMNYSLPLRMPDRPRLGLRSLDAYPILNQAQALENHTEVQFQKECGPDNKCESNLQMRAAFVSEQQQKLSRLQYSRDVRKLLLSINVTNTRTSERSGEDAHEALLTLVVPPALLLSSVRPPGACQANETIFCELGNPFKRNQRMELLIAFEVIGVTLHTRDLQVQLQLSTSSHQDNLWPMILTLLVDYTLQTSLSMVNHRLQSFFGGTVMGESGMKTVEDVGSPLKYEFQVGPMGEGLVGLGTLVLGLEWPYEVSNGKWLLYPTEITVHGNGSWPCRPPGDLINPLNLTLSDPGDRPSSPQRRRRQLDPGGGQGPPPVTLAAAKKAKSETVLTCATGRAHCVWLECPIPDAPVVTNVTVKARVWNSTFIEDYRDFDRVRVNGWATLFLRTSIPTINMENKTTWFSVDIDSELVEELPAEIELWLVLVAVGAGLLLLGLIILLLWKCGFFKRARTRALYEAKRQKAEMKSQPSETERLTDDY", "sequence (P05556 21-798, chain 2 of 2, further chain)": "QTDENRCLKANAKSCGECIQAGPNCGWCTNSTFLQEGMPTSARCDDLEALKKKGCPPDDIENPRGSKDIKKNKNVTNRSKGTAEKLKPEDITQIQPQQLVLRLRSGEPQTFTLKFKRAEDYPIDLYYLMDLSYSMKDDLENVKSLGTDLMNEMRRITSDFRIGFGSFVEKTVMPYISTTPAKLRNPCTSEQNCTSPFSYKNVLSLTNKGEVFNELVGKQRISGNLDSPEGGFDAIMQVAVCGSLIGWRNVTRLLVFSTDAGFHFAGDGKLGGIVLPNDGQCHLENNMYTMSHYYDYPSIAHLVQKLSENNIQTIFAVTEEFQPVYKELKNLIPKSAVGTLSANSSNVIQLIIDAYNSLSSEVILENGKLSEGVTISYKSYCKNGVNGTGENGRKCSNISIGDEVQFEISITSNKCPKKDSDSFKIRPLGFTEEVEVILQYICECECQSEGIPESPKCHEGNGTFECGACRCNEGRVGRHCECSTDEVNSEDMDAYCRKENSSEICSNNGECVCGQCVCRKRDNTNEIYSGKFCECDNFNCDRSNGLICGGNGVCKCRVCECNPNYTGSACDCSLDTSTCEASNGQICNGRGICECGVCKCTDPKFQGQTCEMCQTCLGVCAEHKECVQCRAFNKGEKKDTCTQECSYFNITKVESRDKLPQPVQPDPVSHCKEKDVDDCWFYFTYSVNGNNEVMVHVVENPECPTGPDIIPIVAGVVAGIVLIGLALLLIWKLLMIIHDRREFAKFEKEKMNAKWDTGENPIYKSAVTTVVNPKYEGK", "experiment": "cell-based or functional assay", "data": [{"substance": "recombinant laminin-10 (human α5β1γ1 heterotrimer, α5 chain with C-terminal FLAG epitope) (from UniProt P07942 22-1786; P11047 34-1609) (ligand)", "values": [{"measurement": "inhibition of HT-1080 cell binding to r-laminin-10 by mAbs against either α3 or β1", "result": 80, "unit": "%"}]}]}
